The record followed here is the domain aggregation screens of Martell et al. (2025).

This data set in a line: soluble fraction after stress (log2 fold change); higher = more stays soluble; pooled small domains, quantitative proteomics. Particulars: stress: 50 degC. Summed up: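 Pooled custom libraries of small protein domains were measured in a high-throughput format, with quantitative proteomics as the read-out. Each library was stressed at 50°C. Aggregation propensity is given as the base-two logarithm of the fold change in how much of each protein stays soluble after the stress. Higher values mean a larger share of the protein remains in solution.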

Turning to “HMSLIEQKSQIPLVQGGQRVDKVAAALFTDFSRAELTGWIQQGALTLDGAVVKPKYKVLGGEWLYLRASQS”, the “soluble fraction (log2)” value is -2.02.

Take “HMRTRSDVKRAAIIQAAKDAFQEYGVNATSMDKLAEMASVSKRTVYNHFSAKEELVMHIVKE”: the “soluble fraction (log2)” value was 0.166.

Regarding “HMGIDAIDNFVSKIIMKIEGLGESEVPTSTIGKFIMEGLQYLDTVAYVRYASVYKNFKEAKDFEQFVGSL”, the “soluble fraction (log2)” value was -0.179. Then “HMIEMGNRIRTLRKRRVGSQSEFAEKLDVSVVTISRIENGMTKIDAELLIKMSEVLQVPVNIILGM”, with -3.22; and “HMREIKSNEILLEVENLKNSEFFNDINFNIKKGEIVGFSGLIGAGRTELALTLFGYYKAESGKVIQ”, with 0.061. As to “HMSTVTGLINYLSSGLIKGVGEATARKLVDHFGLDVLDIIQFNPQRLLEVDGIGEARAEMIASSFSEQK”, the “soluble fraction (log2)” value was -0.399. Then “HMTPQEQWNNAYLLAKDYYDANGNLDIDEKYKTKDGFELGSWLTTQRNVYKRGKLSPEKTKKLEEIGISF”, with 0.128; and “HMNVLGQTAIVRSLRLDATFGEVLLADGGAGLIFKARTHGDETFKKGDRVVLLEYLKDQHAYRVISETDFL”, with -1.94. In the case of “HMGQVSDENQLNKVIDEVIKNYPIQVEQFKAGKEPILQFLKGMVMKATEGSADPAVAEKLLRKKL”, the “soluble fraction (log2)” value is 0.237.

Regarding “HMSHGFFTLQSDDLNLLRTVLEGHSSIGDIKIEGIQLVAYLKEPLNGAELNKILFEKGINLSYLVHRK”, the “soluble fraction (log2)” value was -2.15. On to “HMNDAARQTTDILQHVRSSGSISFRDLWRLFMPFMAYRDFDAAVKSLVAAGHIATTENERKELHLIAF”, for which the “soluble fraction (log2)” value is -0.542. Then “HMEGRHFRILYILLNNERVTAPELAEEFGVSVRTIYRDIDTMSAAGIPIYMQGGRKGGIYLLEGY”, with -1.16; and “HMQPSFFEMIRMVESYIKQHFENVGNEFPEIARAIYYGIEEERNIYGTASREDMEELLDEGIPILPVP”, with -0.926; and “HMKVNIGDQVYNQMKDQIMSGVWVPGEKIPSENQLMEVFGVSRGTVRQAIQKLSAVGLLETRRGEGSYVGQ”, with -0.115. On to “HMDKEIKILKEKRLDDVQQAIRELSPQKRRVVEMKLYHNSTNQEVADKLAISVNTVKSLYTSALHDLRRIL”, for which the “soluble fraction (log2)” value is -0.139.

On to “HMSVDIIPGKADQKVRLIHDPAIVGVTTGGVKTAGPHTLIQIELGPNERPYKRLSLLELIPEG”, for which the “soluble fraction (log2)” value was -0.115. The result for “HMSSYAEVMERSKYLQLHKYKIWKSETDGFWRTYYLNEQGKRKMKKLKHSEDMIDFVIEYVQNNE” reads -2.2. Then “HMASFGDLSGLKRTYPPQGLPDASRIADFLIARNEGDLSVEQVKALERFLFEHPDHERTARLVAATRVPA”, with -0.0263; and “HMLLSFYGTYGNVKLTGKELEDLQKEFPFDYQARIDRLSAYMESSGRKYHSHFATIRSWAQDDAKKN”, with -1.79; and “HMLDDESLHFFYKKDGWEYWMKTTTENNYPIQLRKKIGDEKVQEYWNGDKEKKKIGASYFGV”, with -0.391. As for “HMTSGTLTLTQDTPVYTEPNKDGGVAYVQPQGDIQWDKYIFANGDNWYSFVQKNRDQEVRFYIAYSDVG”, the “soluble fraction (log2)” value is -0.0923. Consider “HMRSNQKVSQIAISQVLPGMVTAKNVYSRNDQLILNRETTLDSTKIAKIMFYAIESIYVYEPE”, for which the “soluble fraction (log2)” value was -1.9. Then “HMNSVYTPDPKELAKAIKIVTAAREAEQKGQGVIAVDGRMVDAPVVSQALRILELARLAGMEVSE”, with 0.0244.

Take “HMGRPWRIGDVVNVSRPTGDGGGFTKGLITRIYPTTVQVTWNPDLQHARPWTTMEKKQYLIFVYHDDE”: the “soluble fraction (log2)” value was -2.86.

For the sequence “HMLSYIELTVDNTSKASYIMTDKMKINNFKIIGNNTIRVYENKVSPQDISRTLSMNNVSIEALGRKS”, the “soluble fraction (log2)” value is -1.03. Then “HMQKKEVTVPEVRSKSLKEAAQILSEQNLKYETEPVNVENPDMVVIDQFPKPGGKISEQSVIILYLR”, with not below 0.62; and “HMGHKTLTVELQEKIENLPQTLDKYNLTLGNNKMSVDYTYSVKEKQTGITNLLQDLKEHKFDIVYLVGQDN”, with 0.251; and “HMETTMVEIKAEFTIRNRLDIPAMMEKAGYKDRGEFLSVLEKITGNYNWDRDVKKGDTFMVPSKLA”, with -0.777. As to “HMATAATGIINNNYVNVRSGPATTYNIVGRLDQGSSIEILGSKNDWYQIKTKQLNGWVKNDFINLQK”, the “soluble fraction (log2)” value stood at 0.00222. Then “HMLQEHVLEIRHPSWNDAFRIIGHDGWRTQTGAHAAILSYDEEELNIKWDSWGYERFIRDEKGIFRLAA”, with -0.055; and “HMGADRLVGMTAIVTATIDPNDTDRKGRVQVEGEVWSALSDGRLIITEGSKVRITEMHGTRVRVEAI”, with -0.0351. Consider “HMIGITTANLNVRTGTDTNYTSIAILPKGTKVNILEENVKPGWYKIQFDEIYAFVSSKYIKIQS”, for which the “soluble fraction (log2)” value is -1.12. The result for “HMYAVDTIHKGTITEMTDKGAVVSLGDNIDGFAPARQLVKEDGTTLKLGDTADFKVIEFSKATKRITLSH” reads 0.286; that for “HMGAKVFTVPNLIGKYAIEAGIILKKEGLSEGEVKEENSDKYAAGQIIDQYPAADSPAKENDKINYVVSIG”, 0.00836.

For the sequence “HMKQISQNIHRLRKEKGMSQEQLAQALHVTRQTVSAWERGIAQPSLDVLGQIAQLLGVEPERLLYGE”, the “soluble fraction (log2)” value was determined as 0.153. Then “HMKLTEGETIFLNESDTADWKKIPGIGSVYASRIVKYRNLLGGFVSVNQLREVYGIDDELFAKIYPYI”, with -0.0044; and “HMAEPIEKIIIEGNQRIEALTIQSYLLLRVGEPFNRQLMNQTLKSLYATGYFSDVAVTRVSSSLLVK”, with 0.133; and “HMKNYYSILGVTPDSSEAEIKSAYRRLARKFHPDVNPDGASRFKDISEAYETLSDAKKRFQYDTINGF”, with 0.107. Consider “HMKLTEEEFNAKRKAYLDRLETLNDEAVIKATFMEAASGLGLQKGSAEFGDLRKYFVDRIVDIK”, for which the “soluble fraction (log2)” value was determined as 0.385. In the case of “HMGNNKLVLSLAVALKNTPNFLKNYNYKISKDKKFIEILLSKQINEVSDIIINLKKNNINIVDLNIKKR”, the “soluble fraction (log2)” value is -1.51. With “HMNAAYDEELDFIFSLSEKGKWEEAEAEIGLLLQKHPEDATLQRIGEWVTTQKILLRQQAVEDRIRS”, the “soluble fraction (log2)” value was -0.0763. Then “HMVDERMVTYINSLDKGNTPFLNELEKEALANYVPIIRREMQSFLKVLLQIKAPLRILEVGTAVGFSTILM”, with 0.199. The result for “HMQSSTAISFNQFQKSWLSNNIKSFQLGEDKMTVRGSLKNGTQYETIVPSERLFQFIGQHPKDGQVQEMY” reads 0.042; that for “HMGTVRFYNKERGFGFVVSDDGESVFLPAKALPDGVSDLSPGTRVDYGAALGKKGSQ”, 0.153.

With “HMSTMKIVRVKSNLKIGQEITSKDIEVVEVGAYNMPSEVMKNSEDVIGKYASAEMIKGEYVLAAKISDTP”, the “soluble fraction (log2)” value was 0.479. The result for “HMTLKTISLTEAIKNTNEGNYSKLVLDGNELTITEQGKETPSLKTYTEPGTSLKEQGFDLSKVEFEAREQS” reads 0.152. The result for “HMTGSTSVAQVSTPSGSLNLRAYASTSARVLLQIPEYAFVTVYNRGATWSYVSYNGVSGYVMSVYLSFGG” reads -1.01; that for “HMDEPVDRLSPREQEVLALMAEGRSNAAIAHRLSITEKAVAKHINSIFTKLDLPLDEDDHRRVRAVLAWLR”, -0.274; that for “HMGDGMEVWVNGSPVNLTGKDSFIFVDIFDFIDFDLTASKGRLIVIKVNGEYAEYTRPLHNGDTIEIYWEE”, -0.0714. For the sequence “HMAAAKDVMDWQNAIRGLTDAKGKPYSPTYLKTVHNQLSALFNHAVRYYGLQVNPAAKAGNMGVEE”, the “soluble fraction (log2)” value is -0.0939.
